Measurements as given in patent US6858425.

Tested on: mannose 6-phosphate receptors on the cell surface of fibroblasts

Substance: recombinant human acid α-glucosidase produced in the milk of transgenic mice
- restoration of acid α-glucosidase activity in GSD II patient fibroblasts after 20 hours with the enzyme: Under these conditions acid α-glucosidase of the patient fibroblasts was restored to the level measured in fibroblasts from healthy individuals
- restoration of acid α-glucosidase activity in GSD II patient fibroblasts, with 5 mM mannose 6-phosphate as a competitor: Restoration by α-glucosidase form milk was inhibited by 5 mM mannose 6-phosphate
